{
  "source": "paper PMC9201380",
  "about": "“Structural Characterization of a Neutralizing Nanobody With Broad Activity Against SARS-CoV-2 Variants” (Frontiers in Microbiology, 2022)",
  "molecular_target": "SARS-CoV-2 S receptor-binding domain (residues 330-531), Avi-tagged and biotinylated (SARS-CoV-2, UniProt P0DTC2)",
  "assay": "BLI; Octet RED96; biotinylated RBD (2 μg mL^-1) immobilized on SA sensor; DL28 as analyte at 2, 5, 10 and 20 nM; 30°C; 1x PBS, 0.05% Tween 20; association 360 s, dissociation 600 s; 1:1 fit",
  "details": "both partners purified",
  "data": [
    {"binder": "DL28 (monovalent nanobody) (VHH, also called monovalent DL28) VHH: QVQLQESGGGLVQAGGSLRLSCAASGSDFSSSTMGWYRQAPGKQREFVAISSEGSTSYAGSVKGRFTISRDNAKNTVYLQMNSLEPEDTAVYYCNVVDRWYDYWGQGTQVTVSA", "values": [
      {"measurement": "Kd", "result": 1.56, "unit": "nM"}
    ]}
  ]
}
